Measured values reported in US7704703B2, “Arf and Hdm2 interaction domains and the methods of use thereof” (St. Jude Children's Research Hospital, Inc., priority 2002, dated 2010).

T1: GFP-p19^Arf (Mus musculus, UniProt Q64364)
T1 construct: expressed in transfected cells; host or cells: NIH 3T3 Arf-/- cells
T1 sequence (Q64364 1-169): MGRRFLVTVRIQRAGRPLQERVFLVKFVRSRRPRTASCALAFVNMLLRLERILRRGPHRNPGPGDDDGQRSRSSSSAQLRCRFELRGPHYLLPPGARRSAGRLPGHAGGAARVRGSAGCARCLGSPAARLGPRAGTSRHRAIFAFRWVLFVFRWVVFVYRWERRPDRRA

T2: mArfN37 (Mus musculus, UniProt Q64364)
T2 construct: mouse p19^Arf corresponding to residues 1-37 (mArfN37); made in house; host or cells: E. coli BL21(DE3) (purified 'in a similar manner' to the Hdm2 fragments)
T2 sequence (Q64364 1-37 limits assumed): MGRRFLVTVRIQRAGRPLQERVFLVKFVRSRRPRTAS

B1: Hdm2 277-350: Texas Red labeled Hdm2 deletion construct containing residues 277-350 (protein)
chain: QVTVYQAGESDTDSFEEDPEISLADYWKCTSCNEMNPPLPSHCNRCWALRENWLPEDKGKDKGEISEKAKLENS
B2: Hdm2 210-275: fragment of Hdm2 corresponding to residues 210-275 of SEQ ID NO:8 (protein, listed as Homo sapiens)
chain: SSSSESTGTPSNPDLDAGVSEHSGDWLDQDSVSDQFSVEFEVESLDSEDYSLSEEGQELSDEDDEV

Key:
GFP-p19^Arf = target: T1, GFP-p19^Arf; assay: Microinjection and live cell imaging of Texas Red labeled Hdm2 constructs in NIH 3T3 cells lacking Arf; assay type: cell-based; details: transfected with GFP-p19^Arf
Method: Fluorescent labeling. Proteins for fluorescence microimaging studies were covalently modified using an amine-reactive, sulfosuccinimidyl ester of TEXAS RED® (C31H29S2N2O6Cl1) (Molecular Probes, Inc., Cat. # C-1171). In brief, purified Hdm2-derived proteins were dialyzed into 100 mM sodium bicarbonate buffer, pH 8.3 at 2-4 mg/ml. The Texas Red™ dye was dissolved in dimethylsulfoxide at 10 mg/ml. Protein and dye 3:1 (vol:vol) were reacted for 1 hour at room temperature followed by purification using size-exclusion chromatography (NAP 5 G-25 columns, Amersham Pharmacia Biotech, Inc.). […]
Cell culture and microinjection. […] GFP-Arf positive cells were then located and co-injected with TEXAS RED® (C31H29S2N2O6C1 labeled Hdm2 polypeptides (2 mg/ml in 20 mM Tris-HCl, 100 mM NaCl, pH 7.0) using a Micromanipulator 5171/Transjector 5246 (Eppendorf, AG) in media supplemented with 10 mM HEPES, pH 7.2 to buffer cell media during injection and imaging. Representative cells were imaged over time. An Axiovert 135 TV inverted fluorescence microscope with an automated stage controller (Carl Zeiss, Inc.) and circulating water bath heater (Fisher) was used for both microinjection and imaging. Images were acquired with a Zeiss 40×NA=1.30 oil objective and MicroMax CCD camera (Princeton Instruments Inc.) operated with MetaMorph Version 4.01 imaging software. […]

mArfN37 = target: T2, mArfN37; assay: Surface plasmon resonance: Hdm2 fragments and peptides binding to immobilized His-tagged mArfN37; details: Hdm2 protein fragments as analyte; no binding to control surface
Method: Surface Plasmon Resonance. Binding studies were performed using a Biacore 3000 surface plasmon resonance (SPR) instrument (Biacore, Inc.). A Tetra-His™ Antibody (Qiagen, Inc.; Cat. #34670) was covalently attached to a carboxymethylated gold surface (C-1 chip; Biacore, Inc.). The carboxymethyl groups on the surface were activated with N-ethyl-N′-(3-dimethylaminopropyl) carbodiimide (EDC) and N-hydroxysuccinimide (NHS) and the antibody was attached at pH 7.4 in 20 mM sodium phosphate buffer, 150 mM NaCl (PBS). Reactive sites remaining on the surface were blocked by reaction with ethanolamine. […] Binding was measured by flowing the non-His-tagged analyte through the reference and ligand-containing flow cells in sequence. […] Changes in the SPR response due to solvent differences and the injection process were monitored by injection of HBS-N buffer alone. […]
Small segments of Arf and Hdm2 participate in Arf/Hdm2 interactions. […] However, because mArfN37 is a relatively small polypeptide, it was determined whether it could bind a correspondingly small segment of Hdm2. To test this hypothesis and to monitor Arf/Hdm2 binding reactions quantitatively, Hdm2 constructs were prepared spanning amino acids 210-304 of SEQ ID NO:8 and 210-275 of SEQ ID NO:8 and then it was determined whether they could bind mArfN37 using surface plasmon resonance (SPR). […]

| Molecule | localization after nuclear microinjection in the presence of GFP-p19^Arf (GFP-p19^Arf) | binding of Hdm2 fragment to His-tagged mArfN37 immobilized on SPR biosensor surface (mArfN37) |
| --- | --- | --- |
| B1 | localized in the nucleoplasm rather than in nucleoli |  |
| B2 | nucleolar localization | bind tightly |
